Experimental data: publication PMC11790763, “A Peptide Motif Covering Splice Site B in Neuroligin-1 Binds to Aβ and Acts as a Neprilysin Inhibitor” (Molecular Neurobiology, 2024)

Assays:
recombinant rat NL1 = target: T1, recombinant rat NL1 (Rattus norvegicus, UniProt Q62765); assay: Surface plasmon resonance binding to immobilized NL1; conditions: SPR, Biacore 2000, 25 °C, HBS-P pH 7.4 + 3 mM CaCl2; analyte injected over NL1 immobilized on CM4 chip, 20 μl/min; 1:1 Langmuir model; four independent experiments
T1 construct: the extracellular domain of NL1 was immobilized on a sensor chip; purchased R&D systems (Abingdon, UK)
T1 sequence (Q62765 46-697 limits assumed): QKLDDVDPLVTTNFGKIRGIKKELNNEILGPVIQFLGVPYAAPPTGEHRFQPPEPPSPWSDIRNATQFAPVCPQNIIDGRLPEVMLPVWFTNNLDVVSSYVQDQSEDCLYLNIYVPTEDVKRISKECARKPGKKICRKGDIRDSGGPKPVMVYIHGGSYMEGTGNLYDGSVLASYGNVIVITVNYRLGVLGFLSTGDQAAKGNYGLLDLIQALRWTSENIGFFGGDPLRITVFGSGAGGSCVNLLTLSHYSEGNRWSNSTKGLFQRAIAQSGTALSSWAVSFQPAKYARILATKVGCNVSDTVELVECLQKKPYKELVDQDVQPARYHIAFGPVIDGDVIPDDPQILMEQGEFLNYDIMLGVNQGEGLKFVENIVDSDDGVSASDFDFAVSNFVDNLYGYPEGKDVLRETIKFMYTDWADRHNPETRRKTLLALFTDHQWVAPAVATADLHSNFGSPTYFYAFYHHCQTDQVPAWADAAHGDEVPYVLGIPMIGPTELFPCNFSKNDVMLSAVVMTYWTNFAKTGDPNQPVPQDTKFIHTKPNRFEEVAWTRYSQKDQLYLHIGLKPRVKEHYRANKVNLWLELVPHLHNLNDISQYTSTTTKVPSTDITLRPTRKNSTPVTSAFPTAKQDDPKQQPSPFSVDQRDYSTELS
Procedure: Binding analysis was performed on a Biacore 2000 SPR biosensor (GE Healthcare) at 25 °C using HBS-P (10 mM HEPES, pH 7.4, 150 mM NaCl, 0.005% [v/v] Surfactant P20) supplemented with 3 mM CaCl2 as a running buffer. Approximately 2000 Resonance Units (RU) of NL1 was immobilized on a CM4 sensor chip at a flow rate of 5 μl/min by amine coupling. Binding to serially diluted recombinant NX1β, used as a positive control, was performed as previously described. Aβ1-42 was dissolved in anhydrous DMSO to a stock concentration of 3.21 mM followed by serial dilution in running buffer. Peptide was injected into the chip, and binding experiments were performed at a flow rate of 20 μl/min, followed by regeneration of sensor chip with 10 μl of 15 mM NaOH and 150 mM NaCl. After subtraction of blank control, the binding curves were analyzed based on a nonlinear curve fitting using a 1:1 Langmuir binding model and the software package BIAevaluation 4 (GE Healthcare). The apparent equilibrium constant (KD) was calculated as kd/ka, in which ka and kd are the apparent association and dissociation constants, respectively.

[1] = target: Biotinylated amyloid-β peptide 1-40 (Aβ1-40); assay: ELISA; competitive ELISA: NL1 (3.125 nM) coated on the plate; biotinylated Aβ1-40 (400 nM; Aβ40-1 as negative control) premixed 30 min with serially diluted NL1 or NL1-derived peptides; 4 h at room temperature; streptavidin-HRP; IC50 interpreted as KD

Row | Kd (recombinant rat NL1) [nM] | Kd [1] [nM] | Substance
1 | 6.64 | – | NX1β: recombinant neurexin-1β, positive control for binding to NL1
2 | – | 19.9 | Recombinant rat neuroligin-1 (NL1), soluble extracellular domain (from UniProt Q62765 46-697) (domain or fragment)
